This data set can be described thus: mouse liver sections 10 min after injection, anti-FX/CD68 staining. The conditions noted are these: glycan lost; control: pd-FX.

Experimental findings from PMC3458019 are described below.

Turning to Factor X (FX): PNGase F (N-degly-FX), the localisation_or_trafficking result is recorded as “changes, the localization of FX was predominantly to hepatocytes”.
